The experiment deals with FGFR3-TACC3 RT112 (fibroblast growth factor receptor 3 fused with transforming acidic coiled-coil-containing protein 3), 5F1Y variant, in SMA lipid particles. The experiment is described as follows: mass photometry; RT112-SMALPs at 500 nM incubated on ice for 30 min with FGF1 at a 10x molar ratio, drop dilution into 50 mM HEPES, 500 mM NaCl, 0.5% v/v glycerol, 1 mM TCEP, pH 7.9, room temperature; compared with ligand-free RT112.

For orientation: stoichiometry N means a count of units in the complex or per binding partner. On to “FGFR3-TACC3 RT112 (fibroblast growth factor receptor 3 fused with transforming acidic coiled-coil-containing protein 3), 5F1Y variant, in SMA lipid particles”, for which the stoichiometry N came to 2.

Values taken from publication PMC11758000.
